Experiments:
Format in all cases: cell-based
[1] = system: HDR-proficient DLD1 cells; assay: Cell death in HDR-proficient cells, di-scFv with PARP inhibitor; conditions: 5 nM olaparib, 10 μM di-scFv, or both
Description: Homology-directed repair (HDR) deficient BRCA2-DLD1 cells and PTEN-U251 cells were treated with control, 5 nM olaparib, 10 μM di-scFv, or 10 μM di-scFv+5 nM olaparib. Surviving fraction was determined by colony formation assay.
It was then determined whether the combination of di-scFv and olaparib is simply universally cytotoxic, regardless of DNA repair status. To evaluate this possibility, HDR-proficient DLD1 cells were treated with the above regimen to confirm selectivity of combination therapy to HDR-deficient malignant cells.

DLD1 colon cancer cells = assay: Alkaline phosphatase-based survey of nuclear penetration; conditions: cells treated for one hour; right shift of histogram peak
Description: DLD1 colon cancer cells were treated with control media or each of the indicated variants for one hour. Cells were then washed, fixed, blocked with 1% BSA-TBST, and then probed with protein L for one hour. Cells were then washed and incubated with an anti-protein L primary antibody for one hour. After another round of washing cells were incubated with an alkaline phosphatase-conjugated secondary antibody for one hour. Finally, cells were washed and signal was developed by addition of NBT/BCIP. Dark stain indicates location of the variants.
Raw integrated density values reflecting nuclear alkaline phosphatase staining in the DLD1 cells from the experiment in FIG. 3 were obtained by analysis using ImageJ Boxplots of distributions of values are presented for each variant in FIG. 4.
Histogram plots of cell counts versus nuclear staining intensity (represented as reciprocal intensity in arbitrary units) are shown in FIG. 5.

[2] = system: BRCA2-deficient DLD1 colon cancer cells; assay: Cell viability by Trypan blue exclusion assay; conditions: 7 days later
Description: (§1) Next, a matched pair of BRCA2-proficient and deficient DLD1 colon cancer cells was treated with control media or media containing Variants 10, 13, 15, or 16. Cell viability was determined 7 days later by Trypan blue exclusion assay and by direct visualization of cell morphology by light microscopy. […] Representative light microscope images shown the changes in morphology in the BRCA2-deficient cancer cells treated with the variants are shown in FIG. 10, Panel A. Quantitative analysis of the cell survival by Trypan blue exclusion assay is shown in FIG. 10, Panel B.

[3] = system: BRCA2-proficient DLD1 colon cancer cells; assay: Cell viability by Trypan blue exclusion assay; conditions: 7 days later
Description: as §1

[4] = system: PTEN-deficient U251 human glioma cells; assay: Phospho-53BP1 foci accumulation (DNA damage); conditions: PTEN-deficient U251; twenty-four hours; vs control media
Description: A matched pair of PTEN-proficient and deficient U251 human glioma cells were treated with control media or media containing Variant 10, 11, 13, 15, or 16 for twenty-four hours. Cells were then washed, fixed, blocked, and then probed with an anti-phospho-53BP1 antibody overnight. Cells were then washed and incubated with an AlexaFluor555-conjugated secondary antibody. Finally, cells were washed, counterstained with DAPI, and visualized under a fluorescence microscope. Images were saved and evaluated by CellProfiler to determine mean number of phospho-53BP1 foci per cell.
A matched pair of BRCA2-proficient and deficient DLD1 colon cancer cells and PTEN-proficient and deficient U251 human glioma cells were treated with control media or media containing 10 μM di-scFv variant 13 (SEQ ID NO: 41), 5 nM olaparib, or combination treatment.

[5] = system: PTEN-deficient U87 human glioma cells; assay: Cell viability by Trypan blue exclusion assay; conditions: 7 days after treatment; relative to control treated cells
Description: Cell viability of PTEN-deficient U87 human glioma cells was also assessed following treatment with control media or media containing Variants 10, 13, 15, or 16. Cell viability was determined 7 days after treatment using Trypan blue exclusion assay and by direct visualization of cell morphology by light microscopy.

Molecule	cell death [1]	nuclear penetration relative to the yeast prototype (histogram of cell counts versus nuclear staining intensity) (DLD1 colon cancer cells)	cell viability / toxicity [2]	cell viability / toxicity [3]	mean number of phospho-53BP1 foci per cell [4]	cell viability [5]
O=C(c1cc(Cc2n[nH]c(=O)c3ccccc23)ccc1F)N1CCN(C(=O)C2CC2)CC1 [olaparib, reference compound]	remain resistant					
Variant 12: cell penetrating anti-DNA humanized di-scFv, SEQ ID NO: 40 (protein, Variant 12) scFv: DIQMTQSPSSLSASVGDRVTITCRASKSVSTSSYSYMHWYQQKPGKAPKLLIKYASYLESGVPSRFSGSGSGTDFTLTISSLQPEDFATYYCQHSREFPWTFGQGTKVEIKRADAAPGGGGSGGGGSGGGGSEVQLVESGGGDVKPGGSLRLSCAASGFTFSNYGMHWVRQAPEKGLEWVSYISSSSSTIYYADSVKGRFTISRDNSKNTLYLQMNSLRAEDTAVYYCARRGLLLDYWGQGTTVTVSSASTKGPSVFPLAPLESSGSDIQMTQSPSSLSASVGDRVTITCRASKSVSTSSYSYMHWYQQKPGKAPKLLIKYASYLESGVPSRFSGSGSGTDFTLTISSLQPEDFATYYCQHSREFPWTFGQGTKVEIKRADAAPGGGGSGGGGSGGGGSEVQLVESGGGDVKPGGSLRLSCAASGFTFSNYGMHWVRQAPEKGLEWVSYISSSSSTIYYADSVKGRFTISRDNSKNTLYLQMNSLRAEDTAVYYCARRGLLLDYWGQGTTVTVSS		Most of the variants, other than variants 12 and 14, showed improved nuclear penetration				
Variant 10: cell penetrating anti-DNA humanized di-scFv, SEQ ID NO: 38 (protein, Variant 10) scFv: DIQMTQSPSSLSASVGDRVTITCRASKSVSTSSYSYMHWYQQKPGKAPKLLIKYASYLESGVPSRFSGSGSGTDFTLTISSLQPEDFATYYCQHSREFPWTFGQGTKVEIKRADAAPGGGGSGGGGSGGGGSEVQLVESGGGLVQPGGSLRLSCAASGFTFSNYGMHWVRQAPGKGLEWVSYISSSSSTIYYADSVKGRFTISRDNAKNSLYLQMNSLRAEDTAVYYCARRGLLLDYWGQGTTVTVSSASTKGPSVFPLAPLESSGSDIQMTQSPSSLSASVGDRVTITCRASKSVSTSSYSYMHWYQQKPGKAPKLLIKYASYLESGVPSRFSGSGSGTDFTLTISSLQPEDFATYYCQHSREFPWTFGQGTKVEIKRADAAPGGGGSGGGGSGGGGSEVQLVESGGGLVQPGGSLRLSCAASGFTFSNYGMHWVRQAPGKGLEWVSYISSSSSTIYYADSVKGRFTISRDNAKNSLYLQMNSLRAEDTAVYYCARRGLLLDYWGQGTTVTVSS			killed by the variants	not toxic	increased the number of foci	reductions in cell viability
Variant 11: cell penetrating anti-DNA humanized di-scFv, SEQ ID NO: 39 (protein, Variant 11) scFv: DIQMTQSPSSLSASVGDRVTITCRASKSVSTSSYSYMHWYQQKPGKAPKLLIKYASYLESGVPSRFSGSGSGTDFTLTISSLQPEDFATYYCQHSREFPWTFGQGTKVEIKRADAAPGGGGSGGGGSGGGGSEVQLVESGGGVVQPGGSLRLSCAASGFTFSNYGMHWVRQAPEKGLEWVSYISSSSSTIYYADSVKGRFTISRDNSKNTLYLQMNSLRAEDTAVYYCARRGLLLDYWGQGTTVTVSSASTKGPSVFPLAPLESSGSDIQMTQSPSSLSASVGDRVTITCRASKSVSTSSYSYMHWYQQKPGKAPKLLIKYASYLESGVPSRFSGSGSGTDFTLTISSLQPEDFATYYCQHSREFPWTFGQGTKVEIKRADAAPGGGGSGGGGSGGGGSEVQLVESGGGVVQPGGSLRLSCAASGFTFSNYGMHWVRQAPEKGLEWVSYISSSSSTIYYADSVKGRFTISRDNSKNTLYLQMNSLRAEDTAVYYCARRGLLLDYWGQGTTVTVSS					increased the number of foci	
Variant 14: cell penetrating anti-DNA humanized di-scFv, SEQ ID NO: 42 (protein, Variant 14) scFv: DIQMTQSPSSLSASLGDRATITCRASKTVSTSSYSYMHWYQQKPGQPPKLLIKYASYLESGVPSRFSGSGSGTDFTLTISSLQPEDAATYYCQHSREFPWTFGGGTKVEIKRADAAPGGGGSGGGGSGGGGSEVQLVESGGGVVQPGGSLRLSCAASGFTFSNYGMHWVRQAPEKGLEWVSYISSGSSTIYYADSVKGRFTISRDNSKNTLYLQMNSLRAEDTAVYYCARRGLLLDYWGQGTTVTVSSASTKGPSVFPLAPLESSGSDIQMTQSPSSLSASLGDRATITCRASKTVSTSSYSYMHWYQQKPGQPPKLLIKYASYLESGVPSRFSGSGSGTDFTLTISSLQPEDAATYYCQHSREFPWTFGGGTKVEIKRADAAPGGGGSGGGGSGGGGSEVQLVESGGGVVQPGGSLRLSCAASGFTFSNYGMHWVRQAPEKGLEWVSYISSGSSTIYYADSVKGRFTISRDNSKNTLYLQMNSLRAEDTAVYYCARRGLLLDYWGQGTTVTVSS		Most of the variants, other than variants 12 and 14, showed improved nuclear penetration				
Variant 15: cell penetrating anti-DNA humanized di-scFv, SEQ ID NO: 43 (protein, Variant 15) scFv: DIQMTQSPSSLSASLGDRATITCRASKTVSTSSYSYMHWYQQKPGQPPKLLIKYASYLESGVPSRFSGSGSGTDFTLTISSLQPEDAATYYCQHSREFPWTFGGGTKVEIKRADAAPGGGGSGGGGSGGGGSEVQLVESGGGDVKPGGSLRLSCAASGFTFSNYGMHWVRQAPEKGLEWVSYISSGSSTIYYADSVKGRFTISRDNSKNTLYLQMNSLRAEDTAVYYCARRGLLLDYWGQGTTVTVSSASTKGPSVFPLAPLESSGSDIQMTQSPSSLSASLGDRATITCRASKTVSTSSYSYMHWYQQKPGQPPKLLIKYASYLESGVPSRFSGSGSGTDFTLTISSLQPEDAATYYCQHSREFPWTFGGGTKVEIKRADAAPGGGGSGGGGSGGGGSEVQLVESGGGDVKPGGSLRLSCAASGFTFSNYGMHWVRQAPEKGLEWVSYISSGSSTIYYADSVKGRFTISRDNSKNTLYLQMNSLRAEDTAVYYCARRGLLLDYWGQGTTVTVSS		notable right shift and narrowing of distributions	killed by the variants	not toxic	increased the number of foci	reductions in cell viability
Variant 16: cell penetrating anti-DNA humanized di-scFv, SEQ ID NO: 44 (protein, Variant 16) scFv: DIQMTQSPSSLSASVGDRVTITCRASKTVSTSSYSYMHWYQQKPGKAPKLLIKYASYLESGVPSRFSGSGSGTDFTLTISSLQPEDFATYYCQHSREFPWTFGQGTKVEIKRADAAPGGGGSGGGGSGGGGSEVQLVESGGGLVQPGGSLRLSCAASGFTFSNYGMHWVRQAPGKGLEWVSYISSGSSTIYYADSVKGRFTISRDNAKNSLYLQMNSLRAEDTAVYYCARRGLLLDYWGQGTTVTVSSASTKGPSVFPLAPLESSGSDIQMTQSPSSLSASVGDRVTITCRASKTVSTSSYSYMHWYQQKPGKAPKLLIKYASYLESGVPSRFSGSGSGTDFTLTISSLQPEDFATYYCQHSREFPWTFGQGTKVEIKRADAAPGGGGSGGGGSGGGGSEVQLVESGGGLVQPGGSLRLSCAASGFTFSNYGMHWVRQAPGKGLEWVSYISSGSSTIYYADSVKGRFTISRDNAKNSLYLQMNSLRAEDTAVYYCARRGLLLDYWGQGTTVTVSS			killed by the variants	not toxic	increased the number of foci	reductions in cell viability
